The values that follow come from patent publication US20230416341A1, “IMPROVED THROMBIN INHIBITORS FOR TREATMENT OF THROMBOEMBOLIC CONDITIONS” (priority 2020, published 2023).

The test has as its system occluded carotid artery. Put plainly: Experimental thrombosis and thrombolysis of the carotid artery (electrolytic injury, rtPA/anticoagulant combination, vessel recanalization). It counts as in vivo, mice. The note with it: rtPA therapy alone, 10 mg/kg bolus/infusion, blood flow assessed for 60 minutes. The method, then: Thrombosis: Electrolytic injury was used to generate in situ thrombotic occlusion of the carotid artery in anaesthetised mice, as described (Jackson et al, Nature Medicine 2005; Schoenwaelder et al, J Biol Chem, 2007). Baseline blood flow through the carotid artery was measured using an ultrasound Doppler flow probe. The flow probe was removed, and vessel injury was delivered in the presence of stasis, through placement of a distal haemostatic clamp (Micro Serrefine Clamp, 18055-05, Fine Science Tools, Canada). Delivery of an electrical current (8 mA or 28 mA for 3 minutes) was achieved using a lesion making device (Model 53500, Ugo Basile, Comerio, VA, Italy), with the injury site flushed constantly with saline to prevent tissue dehydration. […]
Thrombolysis: Intravenous thrombolysis was commenced 15 minutes following stable thrombotic vessel occlusion, as monitored with the flow probe. rtPA was administered via jugular catheter using a Harvard Apparatus syringe pump (Cat #704504; Pump Elite 11 I/W Single Syringe Pump, NSW, Australia). […] Carotid artery blood flow was assessed for 60 minutes following commencement of treatment. […] Following thrombolytic therapy, return of carotid artery blood flow was assessed using the mean blood flow recorded with LabChart software (version 7.0, ADInstruments, NSW, Australia). […]

B1: rtPA: thrombolytic agent recombinant tissue plasminogen activator (protein, UniProt P00750 36-562, looked up)
Tissue-type plasminogen …: SYQVICRDEKTQMIYQQHQSWLRPVLRSNRVEYCWCNSGRAQCHSVPVKSCSEPRCFNGGTCQQALYFSDFVCQCPEGFAGKCCEIDTRATCYEDQGISYRGTWSTAESGAECTNWNSSALAQKPYSGRRPDAIRLGLGNHNYCRNPDRDSKPWCYVFKAGKYSSEFCSTPACSEGNSDCYFGNGSAYRGTHSLTESGASCLPWNSMILIGKVYTAQNPSAQALGLGKHNYCRNPDGDAKPWCHVLKNRRLTWEYCDVPSCSTCGLRQYSQPQFRIKGGLFADIASHPWQAAIFAKHRRSPGERFLCGGILISSCWILSAAHCFQERFPPHHLTVILGRTYRVVPGEEEQKFEVEKYIVHKEFDDDTYDNDIALLQLKSDSSRCAQESSVVRTVCLPPADLQLPDWTECELSGYGKHEALSPFYSERLKEAHVRLYPSSRCTSQHLLNRTVTDNMLCAGDTRSGGPQANLHDACQGDSGGPLVCLNDGRMTLVGIISWGLGCGQKDVPGVYTKVTNYLDWIRDNMRP
As for B1, the vessel recanalization result is given as “remains occluded”.
